From the DeepSol protein solubility set come the findings set out here.

The nature of this data set: soluble on expression in E. coli; label from the status in PepcDB or PDB records.
Turning to “MFALIQRGQIYTDRAGYPVEITRSTEHSVFFRRMDGRTGRVRIGEFSSLFEHIDHLEYHKILAETEQEKHLKKLRAMQRK”, the “soluble on expression in E. coli” value is “not soluble”.
Under “MFCRDTLCDTTPAVTDFLNGLSAVASKSPCSGDGALSDGHNAQSRMPVMGHVFLTGLLCVSRLARKRQLLLKRLKQSALPPRASATPSMEDVAVQSPSAAADAGDTVFVRLVLSLLGHTLMKQATTAPCAASPGDNASPQAAPLPWWPATSAPSENAEDVVYDVQCVGNEDDHAGDNVGFSEEHAPGVGHMLFTASTSVHCRIVLRSHPVAIFSPAMMSELALDAEQRASVASRTWCHGGAPGTDSSEAVDAEADAGSCVARALEVFDACVRDHEEACLRQIAEIVGSLQRLLEKPATEVQSPGGLASTGSPSDSANASASRLGGCASPLHEWTIDVPIYGVVLYIEDTHATRLERVRRLTTPLLQAATGCGNAAGGPLGPVTQVLSKLHTWCAAWTAASSTSSTSPGASSCTPGIRTITLMHVTELRQLVDSHLKNSQTAAARLPGPANPATVGYDVSQALAAPACVVHCQLGVSRSPSVVMLFYMDVLAPQLRAAASAAEAPLNIFHGLLNALVQARHRVRPNVCFSAQLLSLWRRLMQLDTPASPTRVV” stands “not soluble”.
For “MFDFNDSMVSNAIIKVVGVGGGGGNAVQHMCEEVSDVEFFALNTDGQALSKSKVQNILQIGTNLTKGLGAGANPEIGKRAATEDRAKIEQLLEGADMVFITAGMGGGTGTGGAPVVAEVAKEMGILTVAVVTKPFPFEGPRRMKAAEQGIDELTKHVDSIITVPNEKLLSVLGKGASLIDAFNAANDVLGNAVKGVSELITKPGLINVDFADVRAVMTNMGLAMMGMGEASGENRAREAAEAAISSPLLEDINLDGAKGVIVNITAGMDMSIGEFEEVGEVIRSFISDEAIVIAGTVIDPDMSDSMKVTVVVTGIEKVAMKRGFGVEKTSSLQQSASSFSNKTSAPFLRKETEVVTGASNAPKTDSDDVNKSDIPSFLRRR” the value was “not soluble”; for “MFDVLMYLFETYIHNEAELRVDQDRLERDLTDAGFDREDIYNALLWLEKLADYQDGLAEPMQLASDPLSMRIYTVEECERLDASCRGFLLFLEQIQVLNLETREMVIERVLALDTAEFDLEDLKWVILMVLFNIPGCENAYQQMEELLFEVNEGMLH”, “not soluble”.
For “MFEALKEVLGEINSKLAAVNNELSSKIMSENIVSTRPVAQAQYCGPYKLEKTLGKGQTGLVKTGTHCITGRKVAIKIVNKEKLSESVLQKVEREIAIMKLIEHPHVLHLYDVYENKKYLYLLLEHVSGGELFDYLVRKGRLMSKEARKFFRQIISALDFCHAHNICHRDLKPENLLLDERNNIKVADFGMASLQVEGSMLETSCGSPHYACPEVIRGEKYDGRKADVWSCGVILYALLVGALPFDDDNLRNLLEKVKRGVFHIPHFVPADVQSLLRAMIEVDPGKRYSLADVFKHPWVSGTTKADPELELPMSQVVQTHVIPGEDSIDPDVLRHMNCLGCFKDKQKLINELLSPKHNTEKMVYFLLLDRKRRRPAQEDDTEIVLRGAAQNNDPPKKRTDSSRTSRYPMGSIADGSPINPRKTYGRNQKSGRHSSLGGSPTESPRSSTRDLFGSSSSGSYSARAGEDRDRGRSASRSTNSYHYYTQPVDPQTLAEAARHVRDAQERRESRDSGRGSSRKESKDRSDKSASSSSCKNDASSTSSVPHKYSPPSVMSESVVVSSSTMNSTNSSTNSLIAGNSQTSIGSTSGPWRSKLNNIKNSFLGTPRFHRRKMSNGTAESDSEDSQMIDTTDLVKKSWFGSLASSMSVERDDTHCVPVQGKTLNSIKAELIRAFLQIHELSHSVVGQNCFRVEYKRGPTVGGSVFSRGIKMNVDIIPSPQQVVIAGETPTYVVQFVLLAGPVRRFKRLVEHLSAILQNSTQQRADRQQQAALMVRPRRLSDSSVGSACSDSESNASSINMIARHSDKTETTSATSSDPYGPSPSMRSVGSGTANSYKSPTPHRRNTTAVTASSSSASNRYGPSSSSSGSYSNNADYSYHPEYSQRSNGSSAPKNQYSPGSQRSFAFSMFNKADKV”, the “soluble on expression in E. coli” value was “not soluble”.
Under “MFFERHGGGERAILVHLDGQDPEAREDPQEFQELALSAGAETVAFVSVPRHRPTAKYLVGSGKVEELRDLVKAEQVDLVIFNHILTPSQERNLERVFECRVIDRTGLILDIFAQRARTHEGKLQVELAQLEHMSTRLVRGWTHLERQKGGIGLRGPGETQLETDRRLLRVRLRQIKARLEKVRSQREQARRGRKRADIPSVSLVGYTNAGKSTLFNAVTASDVFAADQLFATLDPTLRRLELDDLGPIVLADTVGFIRHLPHKLVEAFRATLEESSNSDLLLHVIDAHEPERMAQIEQVMVVLGEIGAQDLPILEVYNKLDLLEGVEPQIQRDPDGKPQRVWLSARDGQGLDLLKQAIAELLGEDLFVGTLRLPQRFARLRAQFFQLNAVQKEDHDDEGVSLLAVRLPRAELNRLVSREGMQPSEFIEQHTLQLEHHHHHH” stands “soluble”; under “MFIKGVILSSYGVNGYARVKSISNNFCDFINLKNNKVLLKKSNSSSVEVKVVDVNIKGNSLFLKFEEIDTPEAVRPLIGFELWVDDSLASSLKEGEYYLGKLIGYAIVNNNKKLGEVVAFFEYLNSVFLEVRVGIKFFFIPFLSIYIGDINTQEKTIELKVLDLLKLEHHHHHH”, “not soluble”.
With “MFKFLMIISMSKHIKRAAKNREDLLEAAVEMFKTHGMMVPLQVIIDHANVGRATFYRNFADRKMLVYALLEQSLVKLKQRTQLYQTYPDGLIRLIQSHVNHLNHLSALMEYWRVLDYSDTSLQALIQQHQRIIQPLIDQAILHKVCRPDFNFEDYRSIVTMLSSSFRGHTEQEQIRMASRVIDLLLNGICLNQEESHG”, the “soluble on expression in E. coli” value was “not soluble”.
Under “MFKKLLHSLFAGLTFMAAVAAVPAHAQEADAQTTVKTAVDDVLATIKGDSDLRSGNMQKVFQLVDQKIVPRADFKRTTQIAMGRFWSQATPEQQQQIQDGFKTLLVRTYAGALANVRNQTVSYKPFRAAADDTDVVVRSTVNNNGEPVALDYRMEKSANGWKVYDINISGLWLSETYKNQFAEVISKRGGVSGLVQFLDERNAQLAKGPAKLEHHHHHH” stands “soluble”; under “MFKRLLMVALLVVAPLANAADQTNPYRLMNEAAEKTFNRLKSEQPKIKQSPDYLRTVVREELLPYVQVRYAGALVLGRYYKDSTPAQRDAYFKAFEAYLEQAYGQALAMYNGQNYQIAPEQPLGNADIVSIRVTIVDNGGRPPVRLDFQWRKNSKTGNWQAYDMIAEGVSMITTKQNEWASILRQKGVDGLTQQLESSAKQTITLDQKKLEHHHHHH”, “soluble”; under “MFMFEKPHGMRDTLPGLYETKKKVRRSLTDLIDKWGYQFMETPTLEFYDTVGVQSAIEEQQLFKLLDQDGKTLVLRPDMTGPIARVAASKLLKHGHPLRVGYAANVFRAQEREGGRPAEFEQVGVELIGDGTTSADAEVIALVVGALKNAGLASFKIAIGHAGIADALFVEVLGNVERADVLRRFLYEKNYVGYREHVKSLPLSSIDKSRLLELLELRGGIEVCGRAEEIVDSAQGKSVVDELKALWDILEDYGCTENVRLDLNMVSHMSYYTGILFEVYAENVGFVIGSGGRYNKLLGHFDSPAPATGFGLRIDRLIEALHMKDEPCEIDAVIFSKEQRAQAIAYANEERMKGNKVVLQDLSGIENIDQMTKSFANVTYFIGARKEEQNG”, “not soluble”.
Turning to “MFQLPILNFSPQQVAGVCETLEESGDVERLGRFLWSLPVAPAACEALNKNESVLRARAIVAFHGGNYRELYHILENHKFTKESHAKLQALWLEAHYQEAEKLRGRPLGPVDKYRVRKKFPLPRTIWDGEQKTHCFKERTRHLLREWYLQDPYPNPSKKRELAQATGLTPTQVGNWFKNRRQRDRAAAAKNRLQQQVLSQGPGRVLRSEGEGTPEVLGVASSPAASLSSKAATSAISITSSDSECDI”, the “soluble on expression in E. coli” value is “soluble”.
“MFQNLLENSKKFWIVLEPYGKFKKMLLRDLRGETHRGETRRGETRRGETHRGETHRGETHRGETHRGETHRGETHRGETYRGETHRGETHRGETHRGKTQNFGGKFKFSVKNILAGNLNFLKKIFWREI”: the “soluble on expression in E. coli” value was “not soluble”.
In the case of “MFQRLFGRERHANRAITDALYAQIVAAARQTVFYSHWNVPDTPLGRFEMLSLHMFLFQHRLRGEGGVAQEIAQVLIDEFFLDVDHSLRELGIGDVGVPKRMKKLAKMFYGRTAAYDDALDRNDRDGLTAALARNVRPDAGTWPEAPQLADYVADACRQLAAQPSQSIVSGTAVFPLAKGGALEHHHHHH”, the “soluble on expression in E. coli” value is “not soluble”.
